{
  "source": "paper PMC6322289",
  "about": "(2019)",
  "binders": {"B1": {"name": "pro-hevein (natural protein)", "chain": "EQCGRQAGGKLCPNNLCCSQWGWCGSTDEYCSPDHNCQSNCKDSGEGVGGGSASNVLATYHLYNSQDHGWDLNAASAYCSTWDANKPYSWRSKYGWTAFCGPVGAHGQSSCGKCLSVTNTGTGAKTTVRIVDQCSNGGLDLDVNVFRQLDTDGKGYERGHITVNYQFVDCGDSFNPLFSVMKSSVIN"}},
  "target": "β-1,3-glucanase (Hevea brasiliensis (endogenous in latex …, UniProt P52407 37-356))",
  "sequence (P52407 37-356)": "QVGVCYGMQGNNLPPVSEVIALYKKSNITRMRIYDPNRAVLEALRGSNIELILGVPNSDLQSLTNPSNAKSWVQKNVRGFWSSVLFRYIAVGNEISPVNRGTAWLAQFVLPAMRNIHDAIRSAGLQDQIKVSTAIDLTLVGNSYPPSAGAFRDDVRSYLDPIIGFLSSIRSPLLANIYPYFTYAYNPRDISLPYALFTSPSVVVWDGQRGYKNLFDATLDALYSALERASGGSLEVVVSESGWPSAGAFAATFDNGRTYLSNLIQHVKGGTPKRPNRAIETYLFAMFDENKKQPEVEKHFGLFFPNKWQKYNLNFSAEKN",
  "test": "SPR",
  "data": [
    {"binder": "EQCGRQAGGKLCPNNLCCSQWGWCGSTDEYCSPDHNCQSNCKD (natural protein)", "note": "[hevein]", "values": [
      {"measurement": "koff", "result": 0.013, "unit": "s⁻¹"}
    ]},
    {"binder": "B1", "values": [
      {"measurement": "koff", "result": 0.0794, "unit": "s⁻¹"}
    ]}
  ]
}
